Source: US20260167684A1 (MERIDA BIOSCIENCES, published 2026)

Tests used:
[1] = biological target: T1, FcγRIIB (human, UniProt P31994 46-217, limits assumed); experiment: SPR; molecule captured on CM5 chip, FcγR as analyte; steady-state fit
T1 construct: Soluble protein used in SPR
T1 sequence (looked up): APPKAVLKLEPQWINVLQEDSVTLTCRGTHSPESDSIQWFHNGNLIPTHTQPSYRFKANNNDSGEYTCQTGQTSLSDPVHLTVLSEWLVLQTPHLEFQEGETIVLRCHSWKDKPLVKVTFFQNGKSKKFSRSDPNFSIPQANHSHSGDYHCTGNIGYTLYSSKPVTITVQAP
Method: (§1) Binding assays using SPR were performed to determine the binding affinity of the exemplary molecules. Molecules were captured on a CM5 SPR chip. Increasing concentrations of FcγR analyte (FcγRIIA167H, FcγRIIA167R or FcγRIIB) were subsequently injected over the captured molecules and a single dissociation performed using single cycle kinetics. The data was then analyzed using steady state analysis which is suitable for low affinity interactions. In particular, a plot of response at equilibrium against the molecule concentration was generated.

[2] = biological target: T2, FcγRIIA167R (UniProt P12318 36-218); experiment: as above
T2 construct: Soluble protein used in SPR
T2 sequence (looked up): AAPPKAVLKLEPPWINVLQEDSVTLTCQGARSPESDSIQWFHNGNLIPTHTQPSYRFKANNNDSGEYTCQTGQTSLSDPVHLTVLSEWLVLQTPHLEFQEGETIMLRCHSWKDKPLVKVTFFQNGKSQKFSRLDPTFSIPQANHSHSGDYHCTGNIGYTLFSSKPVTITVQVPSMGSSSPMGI
Method: as §1

[3] = biological target: T3, FcγRIIA167H (UniProt P12318 36-218); experiment: SPR, molecule captured on sensor chip, FcγRIIA167H as analyte, steady-state plot of response against concentration
T3 construct: Soluble protein used in SPR
T3 sequence (looked up): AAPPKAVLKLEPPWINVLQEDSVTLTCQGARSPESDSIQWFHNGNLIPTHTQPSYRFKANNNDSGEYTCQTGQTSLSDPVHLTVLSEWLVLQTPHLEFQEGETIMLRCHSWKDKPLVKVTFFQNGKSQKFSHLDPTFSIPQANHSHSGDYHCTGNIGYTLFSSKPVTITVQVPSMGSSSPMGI
Method: as §1

B1: Variant G11 (Fc fusion)
chain 1: MGCSSPPCECHQEEDFRVTCKDIQRIPSLPPSTQTLKLIETHLRTIPSHAFSNLPNISRIYVSIDVTLQQLESHSFYNLSKVTHIEIRNTPNLTYIDPDALKELPLLKFLGIFNTGLKMFPPLTKVYSTDIFFILEITDNPYMTSIPRNAFQGLCNETLTLKLYNNGFTSVQGYAFNGTKLDAVYLNKNKYLTVIDKDAFGGVYSGPSLLDVSQTSVTALPSKGLEHLKELRARNTWTLDKTHTCPPCPAPELLGGDSVFLFPPKPKDTLMISRTPEVTCVVVDVSHEEGEVKFNWYVDGVEVHNAKTKPREEQYNSTYRVVSVLTVLHQDWLNGKEYKCKVSNKALPAPIEKTISKAKGQPREPQVYTLPPCREEMTKNQVSLWCLVKGFYPSDIAVEWESNGQPENNYKTTPPVLDSDGSFFLYSKLTVDKSRWQQGNVFSCSVMHEALHNHYTQKSLSLSPGK
chain 2: DKTHTCPPCPAPELLGGDSVFLFPPKPKDTLMISRTPEVTCVVVDVSHEEGEVKFNWYVDGVEVHNAKTKPREEQYNSTYRVVSVLTVLHQDWLNGKEYKCKVSNKALPAPIEKTISKAKGQPREPQVCTLPPSREEMTKNQVSLSCAVKGFYPSDIAVEWESNGQPENNYKTTPPVLDSDGSFFLVSKLTVDKSRWQQGNVFSCSVMHEALHNHYTQKSLSLSPGK
notes: Knob-in-hole heterodimer; also called TSHR260 2P2R huIgG1 Fc P238D/D270E/P271G
[1]
  Kd: 0.987 µM
[2]
  Kd: 3.49 µM
[3]
  binding result: no binding (tested: about 2.4e-6 M)
